Source: the supplement of paper PMC7877785
± gives the uncertainty stated by the source.

Assay: self-splicing fitness, log relative to wild type (ln ratio); higher = more splicing; Tetrahymena group I intron in knt gene, E. coli kanamycin selection, DiMSum; sequences stand for … in CUCUCU…GGAGGGAAAAGUUAUCAGGCAUGCACCUGGUAGCUAGUCUUUAAACCAAUAGAUUGCAUCGGUUUAAAAGGCAAGACCGUCAAAUUGCGGGAAAGGGGUCAACAGCCGUUCAGUACCAAGUCUCAGGGGAAACUUUGAGAUGGCCUUGCAAAGGGUAUGGUAAUAAGCUGACGGACAUGGUCCUAACCACGCAGCCAAGUCCUAAGUCAACAGAUCUUCUGUUGAUAUGGAUGCAGUUCACAGACUAAAUGUCGGUCGGGGAAGAUGUAUUCUUCUCAUAAGAUAUAGUCGGACCUCUCCUUAAUGGGAGCUAGCGGAUGAAGUGAUGCAACACUGGAGCCGCUGGGAACUAAUUUGUAUGCGAAAGUAUAUUGAUUAGUUUUGGAGUACUCGUGGUCG
Summary of the method: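 Pooled colonies went to amplicon sequencing on an Illumina HiSeq 2500 after six replicate transformations. The plates were LB agar with 100 μg/mL carbenicillin, 50 μM IPTG and 0.2% rhamnose, with or without 25 μg/mL kanamycin, incubated overnight at 37°C or 30°C. The E. coli BL21(DE3) library had all eight P1ex-region intron nucleotides randomised, the intron placed in the knt kanamycin-resistance gene on pET-22b(+). DiMSum fitness is the error-weighted combination of replicate fold changes, kanamycin against none, normalised to wild type.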

| Sequence | self-splicing fitness (ln) (30 °C) | self-splicing fitness (ln) (37 °C) |
| --- | --- | --- |
| GAGUAGCAAUAUUACGAGUG | -2.34 ± 0.091 | -0.452 ± 0.11 |
| GAGUAGCAAUAUUACGAUAG | -3.53 ± 0.26 | -2.61 ± 0.28 |
| GAGUAGCAAUAUUACGAUCA | 0.0664 ± 0.19 | -0.761 ± 0.21 |
| GAGUAGCAAUAUUACGAUCC | -1.55 ± 0.092 | -0.509 ± 0.11 |
| GAGUAGCAAUAUUACGAUGU | -2.23 ± 0.11 | -0.716 ± 0.12 |
| GAGUAGCAAUAUUACGAUUA | -0.577 ± 0.092 | -0.317 ± 0.081 |
| GAGUAGCAAUAUUACGGACU | -0.25 ± 0.072 | -0.487 ± 0.096 |
| GAGUAGCAAUAUUACGGAGG | -3.45 ± 0.36 | -0.837 ± 0.36 |
| GAGUAGCAAUAUUACGGGCA | -1.18 ± 0.22 | -1.05 ± 0.19 |
| GAGUAGCAAUAUUACGGGUC | -2.57 ± 0.2 | -1.81 ± 0.18 |
| GAGUAGCAAUAUUACGGGUG | -2.78 ± 0.14 | -1.71 ± 0.14 |
| GAGUAGCAAUAUUACGGUGA | -1.93 ± 0.16 | -1.62 ± 0.14 |
| GAGUAGCAAUAUUACGUGGC | -2.33 ± 0.15 | -2.03 ± 0.28 |
| GAGUAGCAAUAUUACGUGGG | -3.53 ± 0.24 | -2.94 ± 0.23 |
| GAGUAGCAAUAUUACGUUAA | -3.94 ± 0.22 | -2.33 ± 0.18 |
| GAGUAGCAAUAUUACGUUAG | -3.69 ± 0.37 | -2.96 ± 0.34 |
| GAUAAGCAAUAUUACGAAUG | -1.28 ± 0.14 | -0.794 ± 0.15 |
| GAUAAGCAAUAUUACGAUCG | -0.76 ± 0.12 | -0.691 ± 0.14 |
| GAUAAGCAAUAUUACGAUCU | 0.509 ± 0.17 | -1.55 ± 0.19 |
| GAUAAGCAAUAUUACGAUUU | -0.385 ± 0.083 | 1.36 ± 0.12 |
| GAUAAGCAAUAUUACGCAUG | -1.21 ± 0.084 | -0.777 ± 0.11 |
| GAUAAGCAAUAUUACGCCUA | -0.016 ± 0.19 | -0.316 ± 0.19 |
| GAUAAGCAAUAUUACGCCUU | -0.931 ± 0.1 | -0.199 ± 0.14 |
| GAUAAGCAAUAUUACGCGAG | -1.04 ± 0.073 | -0.376 ± 0.079 |
| GAUAAGCAAUAUUACGCGCU | -1.44 ± 0.14 | -1.47 ± 0.15 |

| Sequence | self-splicing fitness (ln) (30 °C) | self-splicing fitness (ln) (37 °C) |
| --- | --- | --- |
| GAUAAGCAAUAUUACGCGUA | -0.996 ± 0.14 | -0.968 ± 0.16 |
| GAUAAGCAAUAUUACGCGUC | -4.66 ± 0.36 | -2.53 ± 0.33 |
| GAUAAGCAAUAUUACGCUGG | -2.66 ± 0.14 | -2.04 ± 0.2 |
| GAUAAGCAAUAUUACGGAUU | -3.19 ± 0.14 | -1.91 ± 0.12 |
| GAUAAGCAAUAUUACGGCAC | -0.252 ± 0.15 | -0.637 ± 0.17 |
| GAUAAGCAAUAUUACGGCCC | -0.576 ± 0.19 | -0.0157 ± 0.28 |
| GAUAAGCAAUAUUACGGCUU | -0.701 ± 0.1 | -0.0417 ± 0.14 |
| GAUAAGCAAUAUUACGGUGC | -2.8 ± 0.19 | -2.17 ± 0.22 |
| GAUAAGCAAUAUUACGUAAC | -1.22 ± 0.1 | -0.811 ± 0.16 |
| GAUAAGCAAUAUUACGUAAG | -2.38 ± 0.088 | -0.896 ± 0.11 |
| GAUAAGCAAUAUUACGUCCC | -0.291 ± 0.2 | -0.349 ± 0.25 |
| GAUAAGCAAUAUUACGUCGC | -1.76 ± 0.22 | -1.17 ± 0.27 |
| GAUAAGCAAUAUUACGUGGC | -3.32 ± 0.21 | -2.24 ± 0.27 |
| GAUAAGCAAUAUUACGUGUG | -1.96 ± 0.079 | -0.282 ± 0.094 |
| GAUAAGCAAUAUUACGUUGG | -3.89 ± 0.21 | -2.87 ± 0.25 |
| GAUCAGCAAUAUUACGAACC | -0.755 ± 0.19 | -1.48 ± 0.28 |
| GAUCAGCAAUAUUACGAGCG | -1.37 ± 0.08 | -0.0351 ± 0.097 |
| GAUCAGCAAUAUUACGAUCA | -0.53 ± 0.13 | -0.636 ± 0.097 |
| GAUCAGCAAUAUUACGCCUA | 0.00222 ± 0.13 | 0.0251 ± 0.12 |
| GAUCAGCAAUAUUACGCGGU | -2.98 ± 0.16 | -1.85 ± 0.24 |
| GAUCAGCAAUAUUACGCGUC | -2.9 ± 0.18 | -3.33 ± 0.4 |
| GAUCAGCAAUAUUACGGACA | -0.118 ± 0.089 | 0.127 ± 0.11 |
| GAUCAGCAAUAUUACGGAGC | -1.86 ± 0.094 | -0.552 ± 0.099 |
| GAUCAGCAAUAUUACGGAUA | -0.42 ± 0.067 | 0.0803 ± 0.077 |
| GAUCAGCAAUAUUACGGGAG | -1.64 ± 0.068 | -0.581 ± 0.086 |

| Sequence | self-splicing fitness (ln) (30 °C) | self-splicing fitness (ln) (37 °C) |
| --- | --- | --- |
| GAUCAGCAAUAUUACGGGAU | -3.01 ± 0.12 | -1.18 ± 0.11 |
| GAUCAGCAAUAUUACGGGCG | -0.25 ± 0.095 | -0.511 ± 0.13 |
| GAUCAGCAAUAUUACGUAAA | -0.582 ± 0.079 | 0.169 ± 0.099 |
| GAUCAGCAAUAUUACGUCGG | -4.18 ± 0.3 | -2.39 ± 0.2 |
| GAUCAGCAAUAUUACGUCGU | -0.403 ± 0.079 | -0.669 ± 0.1 |
| GAUCAGCAAUAUUACGUCUA | -0.327 ± 0.071 | 0.145 ± 0.086 |
| GAUCAGCAAUAUUACGUUAU | -1.46 ± 0.07 | -0.207 ± 0.092 |
| GAUCAGCAAUAUUACGUUCG | -1.33 ± 0.063 | 0.136 ± 0.073 |
| GAUGAGCAAUAUUACGAAGA | -3.25 ± 0.17 | -0.937 ± 0.14 |
| GAUGAGCAAUAUUACGAAGU | -2.87 ± 0.22 | -2.84 ± 0.28 |
| GAUGAGCAAUAUUACGACCC | -0.245 ± 0.34 | -0.0127 ± 0.3 |
| GAUGAGCAAUAUUACGACCU | -1.4 ± 0.18 | -1.36 ± 0.16 |
| GAUGAGCAAUAUUACGAGAG | – | -3.01 ± 0.29 |
| GAUGAGCAAUAUUACGAUGA | -2.24 ± 0.2 | -2.79 ± 0.27 |
| GAUGAGCAAUAUUACGCAAG | -2.46 ± 0.38 | -1.51 ± 0.36 |
| GAUGAGCAAUAUUACGCCCA | -1.17 ± 0.23 | 0.487 ± 0.28 |
| GAUGAGCAAUAUUACGCCGU | – | -2.33 ± 0.46 |
| GAUGAGCAAUAUUACGCCUC | -2.56 ± 0.36 | -1.01 ± 0.38 |
| GAUGAGCAAUAUUACGCGAC | -1.69 ± 0.17 | -0.921 ± 0.15 |
| GAUGAGCAAUAUUACGUCAG | -3.78 ± 0.32 | -2.31 ± 0.26 |
| GAUGAGCAAUAUUACGUCUA | -1.51 ± 0.31 | -1.2 ± 0.25 |
| GAUGAGCAAUAUUACGUGAA | -3.72 ± 0.22 | -1.91 ± 0.2 |
| GAUGAGCAAUAUUACGUGAC | -3.05 ± 0.34 | -2.3 ± 0.42 |
| GAUGAGCAAUAUUACGUGGU | -3.36 ± 0.37 | – |
| GAUGAGCAAUAUUACGUUCU | -2.89 ± 0.16 | -1.32 ± 0.12 |

| Sequence | self-splicing fitness (ln) (30 °C) | self-splicing fitness (ln) (37 °C) |
| --- | --- | --- |
| GAUUAGCAAUAUUACGAAGU | -2.54 ± 0.16 | -0.783 ± 0.12 |
| GAUUAGCAAUAUUACGACCA | -0.409 ± 0.23 | -0.295 ± 0.34 |
| GAUUAGCAAUAUUACGACGG | – | -2.39 ± 0.33 |
| GAUUAGCAAUAUUACGACGU | -0.442 ± 0.063 | 0.93 ± 0.089 |
| GAUUAGCAAUAUUACGAGAA | – | -1.51 ± 0.3 |
| GAUUAGCAAUAUUACGAGUG | -1.25 ± 0.094 | -0.616 ± 0.1 |
| GAUUAGCAAUAUUACGAUGC | -0.852 ± 0.083 | -0.525 ± 0.095 |
| GAUUAGCAAUAUUACGAUGG | -3.28 ± 0.15 | -1.17 ± 0.12 |
| GAUUAGCAAUAUUACGAUUG | -1.71 ± 0.13 | -0.919 ± 0.18 |
| GAUUAGCAAUAUUACGCAAU | -2.41 ± 0.33 | -1.9 ± 0.36 |
| GAUUAGCAAUAUUACGCACG | -1.36 ± 0.12 | -1.14 ± 0.14 |
| GAUUAGCAAUAUUACGCAGG | – | -0.28 ± 0.27 |
| GAUUAGCAAUAUUACGCCAU | – | -1.97 ± 0.47 |
| GAUUAGCAAUAUUACGCCCG | 0.359 ± 0.24 | – |
| GAUUAGCAAUAUUACGCUCA | -0.572 ± 0.12 | -0.182 ± 0.17 |
| GAUUAGCAAUAUUACGCUUA | -1.22 ± 0.13 | -0.752 ± 0.095 |
| GAUUAGCAAUAUUACGGACU | -0.413 ± 0.086 | -0.223 ± 0.1 |
| GAUUAGCAAUAUUACGGCAC | -0.128 ± 0.13 | -0.42 ± 0.12 |
| GAUUAGCAAUAUUACGGGAC | -2.53 ± 0.18 | -1.53 ± 0.14 |
| GAUUAGCAAUAUUACGGGCC | -1.66 ± 0.32 | -2.01 ± 0.47 |
| GAUUAGCAAUAUUACGUAAA | -2.19 ± 0.15 | -0.793 ± 0.19 |
| GAUUAGCAAUAUUACGUAAG | -2.02 ± 0.18 | -0.715 ± 0.29 |
